Reference: PMC8916728

Molecular target: 1-32–captured Pentamer (HCMV Pentamer bound by 1-32 IgG) (human cytomegalovirus (strain Towne) | human) (UniProt P17176)
Assay: BLI

B1: untagged NRP2 (receptor)
chain: RGQPDPPCGGRLNSKDAGYITSPGYPQDYPSHQNCEWIVYAPEPNQKIVLNFNPHFEIEKHDCKYDFIEIRDGDSESADLLGKHCGNIAPPTIISSGSMLYIKFTSDYARQGAGFSLRYEIFKTGSEDCSKNFTSPNGTIESPGFPEKYPHNLDCTFTILAKPKMEIILQFLIFDLEHDPLQVGEGDCKYDWLDIWDGIPHVGPLIGKYCGTKTPSELRSSTGILSLTFHTDMAVAKDGFSARYYLVHQEPLENFQCNVPLGMESGRIANEQISASSTYSDGRWTPQQSRLHGDDNGWTPNLDSNKEYLQVDLRFLTMLTAIATQGAISRETQNGYYVKSYKLEVSTNGEDWMVYRHGKNHKVFQANNDATEVVLNKLHAPLLTRFVRIRPQTWHSGIALRLELFGCRVTDAPCSNMLGMLSGLIADSQISASSTQEYLWSPSAARLVSSRSGWFPRIPQAQPGEEWLQVDLGTPKTVKGVIIQGARGGDSITAVEARAFVRKFKVSYSLNGKDWEYIQDPRTQQPKLFEGNMHYDTPDIRRFDPIPAQYVRVYPERWSPAGIGMRLEVLGCDWTDSKPTVETLGPTVKSEETTTPYPTEEEATECGENCSFEDDKDLQLPSGFNCNFDFLEEPCGWMYDHAKWLRTTWASSSSPNDRTFPDDRNFLRLQSDSQREGQYARLISPPVHLPRSPVCMEFQYQATGGRGVALQVVREASQESKLLWVIREDQGGEWKHGRIILPSYDMEYQIVFEGVIGKGRSGEIAIDDIRISTDVPLENCMEPISAFAGENFKVDIPEIHEREGYEDEIDDEYEVDWSNSSSATSGSGAPSTDKEKSWLYTLDPILITIIAMSSLGVLLGATCAGLLLYCTCSYSGLSSRSCTTLENYNFELYDGLKHKVKMNHQKCCSEA
Kd: 133 nM
